Test results published in the supplement of paper PMC11780869.

Tested on: Bacillus subtilis
Assay: cleaved RNA product abundance (RNA/gDNA barcode ratio) relative to median wild-type variant (ratio to wild type); higher = more accumulation of the downstream cleavage product
Summary of the method: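 B. subtilis strains with chromosomally integrated reporter mRNAs (truncated aprE or tetM) holding barcoded, mutagenized RNase Y cleavage-site windows grew in LB at 37°C from OD600 0.0003 to 0.3. Cleaved product abundance is each construct's RNA:gDNA barcode ratio, scaled to the median construct with the unmutated site. It came from sequencing barcodes of gel-selected, reverse-transcribed cleaved RNA and of genomic DNA.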

[1] = experiment (reporter, strain, medium): exp 4a: truncated aprE reporter, strain BJT201 with 2% xylose (RNase J1 expressed), cleavage site: cggR-gapA (positions -7 to +36 mutated)
[2] = experiment (reporter, strain, medium): exp 2b: truncated aprE reporter, strain BJT200, cleavage site: cggR-gapA (positions -7 to +36 mutated)
[3] = experiment (reporter, strain, medium): exp 8a: truncated aprE reporter, strain BJT201 with 2% xylose (RNase J1 expressed), cleavage site: glnRA (positions -5 to +31 mutated)
[4] = experiment (reporter, strain, medium): exp 6: tetM reporter, strain 168, cleavage site: cggR-gapA (positions -7 to +36 mutated)

Sequence: ACAGACGAAGGAGCCGCAAAGTAGTTATTAAGGGATGAATAGTCCCTCAATATAAATATCTCTCACTTATTTAAA
- cleaved RNA product abundance [1]: 0.883

Sequence: ACAGACGAAGGAGCCGCAAAGAAGTTATTAAGGGATAAATAATCCCTCAATATAAATCTCTCTCACTTATTTAAA
- cleaved RNA product abundance [2]: 0.559
- cleaved RNA product abundance [1]: 0.65

Sequence: ACAGACGAAGGAGCCGCAAAGAAGTTATTAAGGGATGAATAAACCCTCAACATAAATATCTCTCACTTATTTAAA
- cleaved RNA product abundance [2]: 0.122
- cleaved RNA product abundance [1]: 0.0675

Sequence: ACAGACGAAGGAGCCGCAAAGAAGTTATTAAGGGATGAATAATCCATCAAAATAAATATCTCTCACTTATTTAAA
- cleaved RNA product abundance [2]: 0.132
- cleaved RNA product abundance [1]: 0.221

Sequence: ACAGACGAAGGAGCCGCAAAAAAGTTATTAAGGGATGAATAATCCCTCAACATAAATATCTCTCACTTATTTAAA
- cleaved RNA product abundance [2]: 0.239
- cleaved RNA product abundance [1]: 0.272

Sequence: CGACATGTCCCGCTTCTTTCATTAGTCAGTTAGCAACTGTTTTGCTATATACATTTACCTTTTAAGAGGAGGAAT
- cleaved RNA product abundance [3]: 0.249

Sequence: ACAGACGAAGGAGCCGCAAAGAAGTTATTAAGGGATGAATAATCCCTCAATATAAATGACTCTCACTTATTTAAA
- cleaved RNA product abundance [1]: 1.3

Sequence: ACAGACGAAGGAGCCGCAAAGAATTTATTAAGGGATGAATAATCCCTCAATTTAAATATCTCTCACTTATTTAAA
- cleaved RNA product abundance [2]: 0.154
- cleaved RNA product abundance [1]: 0.0947

Sequence: ACAGACGAAGGAGCCGCAAAGAAGTTAATAGGGGATGAATAATCCCTCAATATAAATATCTCTCACTTATTTAAA
- cleaved RNA product abundance [1]: 0.292

Sequence: ACAGACGAAGGAGCCGCAAATAAGTTATTAAGTGATGAATAATCCCTCAATATAAATATCTCTCACTTATTTAAA
- cleaved RNA product abundance [2]: 0.109
- cleaved RNA product abundance [1]: 0.107

Sequence: ACAGACGAAGGAGCCGCAAAGAAGTTATTAAGGGATGAATTATCCCTCACTATAAATATCTCTCACTTATTTAAA
- cleaved RNA product abundance [1]: 0.208

Sequence: CGACATGTCCCGCTTCTTTCATTAATCCGTTAGAAACTGTTTAGCTATATACATTTACCTTTTAAGAGGAGGAAT
- cleaved RNA product abundance [3]: 0.295

Sequence: ACAGACGAAGGAGCCGCAAAGAAATTATTAAGGGATGAATAATCCCTCAAAATAAATATCTCTCACTTATTTAAA
- cleaved RNA product abundance [2]: 0.257
- cleaved RNA product abundance [1]: 0.365

Sequence: ACAGACGAAGGAGCCGCAAAGAAGTTATTTAGGGATGACTAATCCCTCAATATAAATATCTCTCACTTATTTAAA
- cleaved RNA product abundance [1]: 0.541

Sequence: ACAGACGAAGGAGCCGCAAAGAAGTTATTAAGGGATGAATGATCCCACAATATAAATATCTCTCACTTATTTAAA
- cleaved RNA product abundance [2]: 0.121
- cleaved RNA product abundance [1]: 0.101

Sequence: CGACATGTCCCGCTTCTTTCATTAATCCGTTACCAACTGATTTGCTATATACATTTACCTTTTAAGAGGAGGAAT
- cleaved RNA product abundance [3]: 0.205

Sequence: ACAGACGAAGGAGCCGCAAAGAAGTTATTAAGGAATGACTAATCCCTCAATATAAATATCTCTCACTTATTTAAA
- cleaved RNA product abundance [1]: 0.103

Sequence: CGACATGTCCCGCTTCTTTCATTAATCCGTTAGCAACTGTTTCGTTATATACATTTACCTTTTAAGAGGAGGAAT
- cleaved RNA product abundance [3]: 0.222

Sequence: ACAGACGAAGGAGCCGCAAAGAAGTTATTAAGGGATGAATAATGCATCAATATAAATATCTCTCACTTATTTAAA
- cleaved RNA product abundance [1]: 0.159

Sequence: ACAGACGAAGGAGCCGCAAAGAAGTTATTAAGGGATGACTAATCCCTAAATATAAATATCTCTCACTTATTTAAA
- cleaved RNA product abundance [1]: 0.359

Sequence: CGACATGTCCCGCTTCTTTCATTAATGCGTTAGCAACTGTTTTGGTATATACATTTACCTTTTAAGAGGAGGAAT
- cleaved RNA product abundance [3]: 0.244

Sequence: ACAGACGAAGGAGCCGCAAACAATTTATTAAGAGATGAATAATCCCTCAATATAAATATCTCTCACTTATTTAAA
- cleaved RNA product abundance [1]: 0.128

Sequence: CGACATGTCCCGCTTCTTTCATTAATCCTTTAGTAACTGTTTTGCTATATACATTTACCTTTTAAGAGGAGGAAT
- cleaved RNA product abundance [3]: 0.378

Sequence: ACAGACGAAGGAGCCGCAAAGAAGTGATTAAGGGATGAAAAATCCCTCAATATAAATATCTCTCACTTATTTAAA
- cleaved RNA product abundance [1]: 0.399

Sequence: ACAGACGAAGGAGCCGCTAAGAAGTTATTAAGTGATGAATAATCCCTCAATATAAATATCTCTCACTTATTTAAA
- cleaved RNA product abundance [1]: 0.167

Sequence: CGACATGTCCCGCTTCTTTCATTACTCCGTCAGCAACTGTTTTGCTATATACATTTACCTTTTAAGAGGAGGAAT
- cleaved RNA product abundance [3]: 0.381

Sequence: ACAGACGAAGGAGCCGCGAAGAAGTTATTAAGGGATGAATTATCCCTCAATATAAATATCTCTCACTTATTTAAA
- cleaved RNA product abundance [1]: 0.548

Sequence: CGACATGTCCCGCTTCTTTCATTAAACCGTTTGCAACTGTTTTGCTATATACATTTACCTTTTAAGAGGAGGAAT
- cleaved RNA product abundance [3]: 0.331

Sequence: ACAGACGAAGGAGCCGCACAGAAGTTATTTAGGGATGAATAATCCCTCAATATAAATATCTCTCACTTATTTAAA
- cleaved RNA product abundance [1]: 0.843

Sequence: ACAGACGAAGGAGCCGCAAAGAAGTTATTAAGCGATGAATAATCCCTCAAAATAAATATCTCTCACTTATTTAAA
- cleaved RNA product abundance [2]: 0.0793
- cleaved RNA product abundance [1]: 0.108

Sequence: ACAGACGAAGGAGCCGCAAAGACGTTTTTAAGGGATGAATAATCCCTCAATATAAATATCTCTCACTTATTTAAA
- cleaved RNA product abundance [1]: 0.44

Sequence: CGACATGTCCCGCTTCTTTCATTACTCCGTTAGCAACTGTTTTGCTATATATATTTACCTTTTAAGAGGAGGAAT
- cleaved RNA product abundance [3]: 1.44

Sequence: CGACATGTCCCGCTTCTTTCATTAATCCGTTAACAACTGTTTTGCAATATACATTTACCTTTTAAGAGGAGGAAT
- cleaved RNA product abundance [3]: 0.185

Sequence: ACAGACGAAGGAGCCGCAAAGAAGTTATTAAGGGATGAATCATCCCTCAATAAAAATATCTCTCACTTATTTAAA
- cleaved RNA product abundance [1]: 0.197

Sequence: ACAGACGAAGGAGCCGCAAAGAAGTTATTAAGGAATAAATAATCCCTCAATACAAATATCTCTCACTTATTTAAA
- cleaved RNA product abundance [1]: 0.0573

Sequence: ACAGACGAAGGAGCCGCAAAGAACTTATTAAGGGATGAATAATCCCTCAATATAAATATCTCTCACTTATTTAAA
- cleaved RNA product abundance [2]: 0.448
- cleaved RNA product abundance [1]: 0.509
- cleaved RNA product abundance [4]: 0.575

Sequence: ACAGACGAAGGAGCCGCAAAGAAGTTAATAAGGGATGAATCATCCCTCAATATAAATATCTCTCACTTATTTAAA
- cleaved RNA product abundance [2]: 0.188
- cleaved RNA product abundance [1]: 0.314

Sequence: ACAGACGAAGGAGCCGCAAAGAAGTTATTAAGAGATGAATAATCCCTCAATATAAATACCTCTCACTTATTTAAA
- cleaved RNA product abundance [1]: 0.126

Sequence: ACAGACGAAGGAGCCGCAAAGAAGTTATTAAGGGATGAATAAACCCTTAATATAAATATCTCTCACTTATTTAAA
- cleaved RNA product abundance [1]: 0.507

Sequence: ACAGACGAAGGAGCCGCAAAGAAGTAATTAAGGGATGAATAATCCCTCTATATAAATATCTCTCACTTATTTAAA
- cleaved RNA product abundance [1]: 0.193

Sequence: ACAGACGAAGGAGCCGCAAAGAAGTTATTGAGGGATGAATAATCCCTCAATATACATATCTCTCACTTATTTAAA
- cleaved RNA product abundance [1]: 0.0596

Sequence: CGACATGTCCCGCTTCTTTCATTAATCCGTTAGCAACTGTTTAGCTATATACATATACCTTTTAAGAGGAGGAAT
- cleaved RNA product abundance [3]: 0.539

Sequence: ACAGACGAAGGAGCCGCAAGGAAGTTATCAAGGGATGAATAATCCCTCAATATAAATATCTCTCACTTATTTAAA
- cleaved RNA product abundance [2]: 0.271
- cleaved RNA product abundance [1]: 0.347

Sequence: ACAGACGAAGGAGCCGCAATGAAGTTATTAAGGGATGAATAATCCCTCAATATAAATATCTCTCACTTATTTAAA
- cleaved RNA product abundance [2]: 1.1
- cleaved RNA product abundance [1]: 1.12
- cleaved RNA product abundance [4]: 0.968

Sequence: CGACATGTCCCGCTTCTTTCATTAATAGGTTAGCAACTGTTTTGCTATATACATTTACCTTTTAAGAGGAGGAAT
- cleaved RNA product abundance [3]: 0.766

Sequence: ACAGACGAAGGAGCCGCAAAGAATTTATTAAGGGATGAATAATCCTTCAATATAAATATCTCTCACTTATTTAAA
- cleaved RNA product abundance [1]: 0.397

Sequence: CGACATGTCCCGCTTCTTTCATTAATCCGTTAGCATCTGTTTTGCTATATACATTTACCTTTTAAGAGGAGGAAT
- cleaved RNA product abundance [3]: 0.769

Sequence: ACAGACGAAGGAGCCGCAAACAATTTATTAAGGGATGAATAATCCCTCAATATAAATATCTCTCACTTATTTAAA
- cleaved RNA product abundance [1]: 0.756

Sequence: CGACATGTCCCGCTTCTTTCATTAATCCGTTAACAACTGTTTTCCTATATACATTTACCTTTTAAGAGGAGGAAT
- cleaved RNA product abundance [3]: 0.263

Sequence: ACAGACGAAGGAGCCGCAAAGAAGTTTTTAAGGGATGAATAATCCCTCAATTTAAATATCTCTCACTTATTTAAA
- cleaved RNA product abundance [1]: 0.188

Sequence: ACAGACGAAGGAGCCGCAAAGAAGTTATTAAGAGATGAATAATCCCTCAATATAAAAATCTCTCACTTATTTAAA
- cleaved RNA product abundance [2]: 0.103
- cleaved RNA product abundance [1]: 0.181

Sequence: ACAGACGAAGGAGCCGCATAGAAGTTATTAAGGGATGAATAATCCCTAAATATAAATATCTCTCACTTATTTAAA
- cleaved RNA product abundance [1]: 0.658

Sequence: ACAGACGAAGGAGCCGCAAAGAAGTTATTAATGGATGAATAATCCCTCCATATAAATATCTCTCACTTATTTAAA
- cleaved RNA product abundance [1]: 0.12

Sequence: ACAGACGAAGGAGCCGCAAAGAAGTTATTAAGGGATTAATAAACCCTCAATATAAATATCTCTCACTTATTTAAA
- cleaved RNA product abundance [2]: 0.559
- cleaved RNA product abundance [1]: 0.575
